Data from the supplement of paper PMC9233669.
Variants at the floor of the assay were thinned out.

Experiments:
[1] = system: biotinyl-Met-oxazolone; assay: self-aminoacylation, catalytic enhancement (BMO) (fold over background); higher = more active; k-Seq, kA / k0A0; sequences stand for … in GGGAAUGGAUCCACAUCUACGAAUUC…UUCACUGCAGACUUGACGAAGCUG
Summary of the method: (§1)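 The uncatalyzed rate is the low-activity peak of a bimodal Gaussian fit, and catalytic enhancement is median kA divided by it. The kA values came from pseudo-first-order fits, with 1000 bootstraps, of per-sequence fraction reacted measured by streptavidin capture, triplicate qPCR and Illumina sequencing. Mutagenized RNA pools with a 21-nt variable region (0.43 μM) were reacted with each biotinyl-aminoacyl-oxazolone at 2–1250 μM in 50 μL HEPES/NaCl/KCl/MgCl2/CaCl2 buffer with 5% acetonitrile, pH 6.9–7.0, for 90 minutes at room temperature.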

[2] = system: biotinyl-Trp-oxazolone; assay: self-aminoacylation, catalytic enhancement (BWO) (fold over background); higher = more active; k-Seq, kA / k0A0; sequences stand for … in GGGAAUGGAUCCACAUCUACGAAUUC…UUCACUGCAGACUUGACGAAGCUG
Summary of the method: as §1

[3] = system: biotinyl-Phe-oxazolone; assay: self-aminoacylation, catalytic enhancement (BFO) (fold over background); higher = more active; k-Seq, kA / k0A0; sequences stand for … in GGGAAUGGAUCCACAUCUACGAAUUC…UUCACUGCAGACUUGACGAAGCUG
Summary of the method: as §1

[4] = system: biotinyl-Val-oxazolone; assay: self-aminoacylation, catalytic enhancement (BVO) (fold over background); higher = more active; k-Seq, kA / k0A0; sequences stand for … in GGGAAUGGAUCCACAUCUACGAAUUC…UUCACUGCAGACUUGACGAAGCUG
Summary of the method: as §1

[5] = system: biotinyl-Ile-oxazolone; assay: self-aminoacylation, catalytic enhancement (BIO) (fold over background); higher = more active; k-Seq, kA / k0A0; sequences stand for … in GGGAAUGGAUCCACAUCUACGAAUUC…UUCACUGCAGACUUGACGAAGCUG
Summary of the method: as §1

[6] = system: biotinyl-Leu-oxazolone; assay: self-aminoacylation, catalytic enhancement (BLO) (fold over background); higher = more active; k-Seq, kA / k0A0; sequences stand for … in GGGAAUGGAUCCACAUCUACGAAUUC…UUCACUGCAGACUUGACGAAGCUG
Summary of the method: as §1

| Sequence | self-aminoacylation [1] | self-aminoacylation [2] | self-aminoacylation [3] | self-aminoacylation [4] | self-aminoacylation [5] | self-aminoacylation [6] |
| --- | --- | --- | --- | --- | --- | --- |
| AUUCACCUAGGUCAUCGGAUG [Fam2.2 aminoacylation ribozyme variant] | 0.773 | 0.594 | 0.601 | 0.928 | 0.814 | 0.748 |
| AAGUUUGCUAAUAUUCGCAGG [Fam3.1 aminoacylation ribozyme variant] | 1.68 | 2.04 | 1.32 | 1.31 | 1.35 | 1.4 |
| CUGCUUCAAACAAUCUGUCUG [Fam1A.1 aminoacylation ribozyme variant] | 0.675 | 1.53 | 4.03 | 0.701 | 0.604 | 0.647 |
| CUACUUUAAACAGUCGGUCUG [Fam1A.1 aminoacylation ribozyme variant] | 0.765 | 0.651 | 0.582 | 0.845 | 0.837 | 0.812 |
| AUUCACCCAGGUCAACGGGUG [Fam2.2 aminoacylation ribozyme variant] | 3.24 | 3.81 | 19.7 | 2.53 | 1.96 | 4.29 |
| GAGUUCGCUAAUAGUCGCAAG [Fam3.1 aminoacylation ribozyme variant] | 1.91 | 2.21 | 8.98 | 2.52 | 2.8 | 2.71 |
| CUACUUCAAACCAUCGGUUUG [Fam1A.1 aminoacylation ribozyme variant] | 0.74 | 0.624 | 0.597 | 1.03 | 0.815 | 0.895 |
| AUUCACCUCGGUCAUCGGGUU [Fam2.2 aminoacylation ribozyme variant] | 2.44 | 2.53 | 13.3 | 2.41 | 2.15 | 2.47 |
| AUUACCGUGGUCACCGAGUGA [Fam2.1 aminoacylation ribozyme variant] | 3.87 | 2.95 | 9.08 | 2.83 | 2.39 | 3.65 |
| CCACAUUUCAAGCAAUUGGUC [Fam1B.1 aminoacylation ribozyme variant] | 1.17 | 0.656 | 0.932 | 0.994 | 1.22 | 0.857 |
| AAUACCCUAGUCAUCGAGUGA [Fam2.1 aminoacylation ribozyme variant] | 4.24 | 5.18 | 15.4 | 2.64 | 2.46 | 4.49 |
| AUUCACUGAGGUCAUCGGGUG [Fam2.2 aminoacylation ribozyme variant] | 7.22 | 5.64 | 55.7 | 4.37 | 4.51 | 9.09 |
| AAGUUUGCUAAUAGUCGAAUG [Fam3.1 aminoacylation ribozyme variant] | 1.17 | 1.17 | 1.48 | 0.903 | 1.09 | 0.88 |
| AUUCACCCAGGUCAUCGGGGG [Fam2.2 aminoacylation ribozyme variant] | 2.1 | 1.92 | 11.7 | 1.6 | 1.86 | 2.17 |
| GUUCACCUAGGUAAUCGGGUG [Fam2.2 aminoacylation ribozyme variant] | 2.74 | 3.83 | 9.25 | 2.12 | 2.38 | 2.92 |
| AUUCACCGAGGUCAUCGAGUG [Fam2.2 aminoacylation ribozyme variant] | 2.89 | 2.82 | 12.6 | 2.17 | 1.75 | 3.6 |
| CUUCUUCAAACUAUCGGUCUG [Fam1A.1 aminoacylation ribozyme variant] | 0.943 | 0.962 | 1.22 | 1.01 | 1.26 | 1 |
| AUUCACCUAGGUCAUCGCGUA [Fam2.2 aminoacylation ribozyme variant] | 3.71 | 6.08 | 19.4 | 2.89 | 3.2 | 4.3 |
| CUACUUCAGACAAUCGGUUUG [Fam1A.1 aminoacylation ribozyme variant] | 0.613 | 0.646 | 0.819 | 0.86 | 0.771 | 0.596 |
| AUUCACCUAGCUCAUCGGAUG [Fam2.2 aminoacylation ribozyme variant] | 0.609 | 0.452 | 0.472 | 0.82 | 0.779 | 0.772 |
| AUUACCCUGGUCACAGAGUGA [Fam2.1 aminoacylation ribozyme variant] | 8.95 | 9.52 | 54.1 | 4.01 | 4.39 | 10.9 |
| CUACUUCAGACAAUCGUUCUG [Fam1A.1 aminoacylation ribozyme variant] | 0.477 | 0.342 | 0.453 | 0.659 | 0.59 | 0.512 |

| Sequence | self-aminoacylation [1] | self-aminoacylation [2] | self-aminoacylation [3] | self-aminoacylation [4] | self-aminoacylation [5] | self-aminoacylation [6] |
| --- | --- | --- | --- | --- | --- | --- |
| AAGAUUGCUAAUGGUCGCAAG [Fam3.1 aminoacylation ribozyme variant] | 1.51 | 1.06 | 1.11 | 1.14 | 1.21 | 1.07 |
| CUACUGCAAACAAUUGGUCUG [Fam1A.1 aminoacylation ribozyme variant] | 0.966 | 0.956 | 1.18 | 1.07 | 1.19 | 0.823 |
| AUUCACAUAGUUCAUCGGGUG [Fam2.2 aminoacylation ribozyme variant] | 2.76 | 2.42 | 19.2 | 2.3 | 2.27 | 3.48 |
| AAGGUUGCUAAUAGUCACAAG [Fam3.1 aminoacylation ribozyme variant] | 1.72 | 1.72 | 4.71 | 1.32 | 1.71 | 1.57 |
| AUUCACAUGGGUCAUCGGGUG [Fam2.2 aminoacylation ribozyme variant] | 9.66 | 8.84 | 70.4 | 5.96 | 5.6 | 11.6 |
| AUUCACCUAAGUCAUGGGGUG [Fam2.2 aminoacylation ribozyme variant] | 5.16 | 5.16 | 33.4 | 3.47 | 3.71 | 7.26 |
| AUUACCCUGGGCAUCGCGUGA [Fam2.1 aminoacylation ribozyme variant] | 6.98 | 7.7 | 48.7 | 5.38 | 3.74 | 9.41 |
| AAUCACCUGGGUCAUCGGGUG [Fam2.2 aminoacylation ribozyme variant] | 4.32 | 7.63 | 31.9 | 6.36 | 4.12 | 4.47 |
| AAGUUUGCUAAUAGUCUCGAG [Fam3.1 aminoacylation ribozyme variant] | 1.02 | 1.96 | 2.01 | 0.95 | 1.06 | 1.14 |
| CCACACUUCACGCAAUCGGUU [Fam1B.1 aminoacylation ribozyme variant] | 2.01 | 1.45 | 0.906 | 1.92 | 1.76 | 1.95 |
| CCACACCUCAAGCCAUCGGUC [Fam1B.1 aminoacylation ribozyme variant] | 1.38 | 1.55 | 2.01 | 1.42 | 1.27 | 1.41 |
| CCACUUCAAACAAUCCGUCUG [Fam1A.1 aminoacylation ribozyme variant] | 0.967 | 1.85 | 2.13 | 1.01 | 1.08 | 0.795 |
| AUUCACCUAGGUCAUUCGGUG [Fam2.2 aminoacylation ribozyme variant] | 4.55 | 5.13 | 33.6 | 3.79 | 3.94 | 6.91 |
| AUUUACCUAGGUCAUCGGGUA [Fam2.2 aminoacylation ribozyme variant] | 29.5 | 22.2 | 218 | 12.3 | 14.1 | 39.9 |
| CCACACUUUAAGUAAUCGGUC [Fam1B.1 aminoacylation ribozyme variant] | 0.632 | 0.677 | 0.978 | 0.694 | 0.653 | 0.667 |
| AUGUGUGCUAAUAGUCGCAAG [Fam3.1 aminoacylation ribozyme variant] | 1.2 | 1.95 | 3.53 | 1.37 | 1.57 | 1.36 |
| AAGGUUGCUAACAGUCGCAAG [Fam3.1 aminoacylation ribozyme variant] | 1.06 | 1.65 | 3.97 | 1.11 | 1.33 | 1.83 |
| AAGUCUGCUAAUAGUCUCAAG [Fam3.1 aminoacylation ribozyme variant] | 1.76 | 4.59 | 19.4 | 1.2 | 1.14 | 1.43 |
| ACUCACCUAGGUAAUCGGGUG [Fam2.2 aminoacylation ribozyme variant] | 4.2 | 4.3 | 23.9 | 2.85 | 3.22 | 3.66 |
| ACACACGUCAAGCAAUCGGUC [Fam1B.1 aminoacylation ribozyme variant] | 1.96 | 2.55 | 3.48 | 2.04 | 1.88 | 2.14 |
| AUUCGCCUAGGUCAUCGGAUG [Fam2.2 aminoacylation ribozyme variant] | 0.94 | 0.704 | 0.493 | 1.07 | 0.941 | 0.903 |
